Source: paper PMC6336196 (Nature, 2018)
Where two headings read alike, the source gives them in different places.

Legend:
cryo-EM structure [1] = biological target: the molecule itself; experiment: cryo-EM structure
cryo-EM structure [2] = biological target: the molecule itself; experiment: cryo-EM structure; remark: listed apart in the source

Protein	stoichiometry N (cryo-EM structure [1])	stoichiometry N (cryo-EM structure [2])
Danio rerio (zebrafish) mitochondrial calcium uniporter (natural protein, zebrafish (Danio rerio), UniProt Q08BI9 35-376, looked up) QGTKTEALSMSLGGHQTVRRAHGLRTGGRCALFCHPSATLTAQGWKGSPSWQVQRLLCSPAAEDVSVVYQNGLPVISVRLPSRRERCQFTLKPLSDTVGVFLQQLQAEDRGIDRVTIYSADGARIASSTGIDILLMDNFKLVINDTSYLVQPPRRDLLPHEDGERLNDVKILVQQLYTTLRIEEHQLNKERELIGRLEDLNSQLQPLEKVKEELSKKAERRTTWVLWGGMAYMATQFGILARLTWWEYSWDIMEPVTYFITYGTAMAMYAYFVLTRQEYLYPDARDRQYLLFFHRGAKRTRFDIEKYNKLKDAIAEAELDLKRLRDPLQLNLPIQQIDTSKD	4	
Cyphellophora europaea mitochondrial calcium uniporter (natural protein, UniProt W2SDE2 1-346, looked up) MTKGKLLTTPSRLLKLVLPLSTVDHNTDRKDVAPLALLVHPQQPLSYLERLIQAELPPPDPQDSKSTTRSVTFRAMEAKDDEIKPRKKADTEGGGGSDGSVQSYSGAGREGEGKDEGEFVRWSPSTEIGDFIRDAARAKEFEVEIEGSPGVIKVAVPSFNDRTYYLRQRLRRTSRKISKLAAIKEECDKAAHRGAQRIALAGCGGLIGYWYIVYRLTFETDLGWDVMEPVTYLVGLSTLIGGYMWFLWHNREVSYRSALNITVSARQNKLYQAKGFSLQDWEGYLEEANAMRREIKAVASEYDVDWNETQDEGGDEKVTKALRDERKNNNGTKNKSKEGEEDDEDD		4
